Reference: the supplement of paper PMC9112550, “Optimization of the antimicrobial peptide Bac7 by deep mutational scanning” (BMC Biology, 2022)

Test system: Escherichia coli TOP10
Assay: shrunken log2 fold change of peptide-encoding DNA abundance (4.5 h post-induction vs induction); higher = less antimicrobial activity (less host growth inhibition)
Conditions: time post-induction: 4.5 h; library: site-saturation at positions 5, 18, 19, 20
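Further: peptides expressed intracellularly from a pBAD plasmid library in pooled LB shake-flask culture, induced with 0.3% L-arabinose, DNA abundance read by NGS, three biological replicates, DESeq2 with apeglm shrinkage.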

Sequence	shrunken log2 fold change
RRIRCRPPRLPRPRPRPPHWPRP	0.531
RRIRVRPPRLPRPRPRPEFYPRP	-0.251
RRIRFRPPRLPRPRPRPTEAPRP	0.332
RRIRIRPPRLPRPRPRPLYRPRP	-0.384
RRIRSRPPRLPRPRPRPEWFPRP	-0.287
RRIRERPPRLPRPRPRPTNVPRP	-0.387
RRIRMRPPRLPRPRPRPEWKPRP	0.0511
RRIRWRPPRLPRPRPRPMWKPRP	-0.0109
RRIRARPPRLPRPRPRPAVVPRP	0.16
RRIRTRPPRLPRPRPRPGDHPRP	0.00667
RRIRKRPPRLPRPRPRPDPPPRP	0.927
RRIRRRPPRLPRPRPRPMEGPRP	0.0518
RRIRGRPPRLPRPRPRPCIFPRP	0.426
RRIRRRPPRLPRPRPRPGAAPRP	0.866
RRIRERPPRLPRPRPRPWTQPRP	-0.298
RRIRIRPPRLPRPRPRPPNGPRP	-0.291
RRIRHRPPRLPRPRPRPWDQPRP	0.0769
RRIRMRPPRLPRPRPRPFYLPRP	-0.191
RRIRIRPPRLPRPRPRPANEPRP	0.158
RRIRERPPRLPRPRPRPAFIPRP	-0.012
RRIRYRPPRLPRPRPRPIERPRP	0.0253
RRIRCRPPRLPRPRPRPCMRPRP	0.0312
RRIRHRPPRLPRPRPRPEGHPRP	0.065
RRIRCRPPRLPRPRPRPNQWPRP	-0.117
RRIRTRPPRLPRPRPRPTHKPRP	-0.0156

Sequence	shrunken log2 fold change
RRIRNRPPRLPRPRPRPLEVPRP	-0.118
RRIRSRPPRLPRPRPRPWEQPRP	-0.208
RRIRIRPPRLPRPRPRPNIAPRP	-0.407
RRIRNRPPRLPRPRPRPKPSPRP	0.137
RRIRFRPPRLPRPRPRPDFIPRP	-0.395
RRIRGRPPRLPRPRPRPSRCPRP	-0.0851
RRIRLRPPRLPRPRPRPDYPPRP	-0.307
RRIRKRPPRLPRPRPRPGFCPRP	0.243
RRIRPRPPRLPRPRPRPQGNPRP	-0.146
RRIRKRPPRLPRPRPRPCMGPRP	0.045
RRIRFRPPRLPRPRPRPTHFPRP	-0.227
RRIRVRPPRLPRPRPRPFWDPRP	-0.0687
RRIRWRPPRLPRPRPRPPGQPRP	0.123
RRIRKRPPRLPRPRPRPQEFPRP	-0.0241
RRIRMRPPRLPRPRPRPNPDPRP	0.377
RRIRTRPPRLPRPRPRPPPLPRP	0.352
RRIRTRPPRLPRPRPRPMHHPRP	-0.00407
RRIRWRPPRLPRPRPRPSSIPRP	-0.338
RRIRTRPPRLPRPRPRPTQRPRP	0.11
RRIRDRPPRLPRPRPRPFNMPRP	-0.186
RRIRERPPRLPRPRPRPKDCPRP	0.033
RRIRRRPPRLPRPRPRPEHDPRP	0.356
RRIRNRPPRLPRPRPRPVNLPRP	-0.0237
RRIRIRPPRLPRPRPRPQSPPRP	0.0218
RRIRPRPPRLPRPRPRPIRGPRP	0.182

Sequence	shrunken log2 fold change
RRIRWRPPRLPRPRPRPYCCPRP	-0.569
RRIRERPPRLPRPRPRPQVYPRP	-0.023
RRIRARPPRLPRPRPRPIRPPRP	0.237
RRIRDRPPRLPRPRPRPNMPPRP	-0.497
RRIRKRPPRLPRPRPRPRHSPRP	0.152
RRIRWRPPRLPRPRPRPELWPRP	0.729
RRIRNRPPRLPRPRPRPTEQPRP	-0.209
RRIRCRPPRLPRPRPRPCLFPRP	-0.333
RRIRARPPRLPRPRPRPLSWPRP	0.984
RRIRKRPPRLPRPRPRPYFTPRP	-0.0968
RRIRNRPPRLPRPRPRPLCIPRP	-0.598
RRIRTRPPRLPRPRPRPTAEPRP	0.458
RRIRYRPPRLPRPRPRPQNFPRP	-0.00184
RRIRVRPPRLPRPRPRPWLLPRP	0.208
RRIRFRPPRLPRPRPRPDFKPRP	-0.296
RRIRQRPPRLPRPRPRPSSGPRP	-0.0384
RRIRERPPRLPRPRPRPNKIPRP	-0.642
RRIRLRPPRLPRPRPRPRGSPRP	0.16
RRIRYRPPRLPRPRPRPQLAPRP	-0.228
RRIRVRPPRLPRPRPRPIDKPRP	-0.471
RRIRLRPPRLPRPRPRPNDYPRP	-0.582
RRIRWRPPRLPRPRPRPCFAPRP	0.263
RRIRRRPPRLPRPRPRPHNNPRP	-0.508
RRIRHRPPRLPRPRPRPKKNPRP	-0.14
RRIRLRPPRLPRPRPRPRREPRP	0.223

Sequence	shrunken log2 fold change
RRIRARPPRLPRPRPRPAYLPRP	0.365
RRIRYRPPRLPRPRPRPWLFPRP	0.0905
RRIRGRPPRLPRPRPRPKHDPRP	0.466
RRIRLRPPRLPRPRPRPGHCPRP	0.0372
RRIRRRPPRLPRPRPRPRAWPRP	-0.0407
RRIRPRPPRLPRPRPRPLRRPRP	0.805
RRIRMRPPRLPRPRPRPTWGPRP	0.564
RRIRKRPPRLPRPRPRPRDEPRP	-0.0461
RRIRARPPRLPRPRPRPMYRPRP	-0.0452
RRIRNRPPRLPRPRPRPSCAPRP	-0.0999
RRIRTRPPRLPRPRPRPCREPRP	0.0664
RRIRLRPPRLPRPRPRPFAEPRP	0.102
RRIRWRPPRLPRPRPRPRAFPRP	0.57
RRIRWRPPRLPRPRPRPMFQPRP	-0.241
RRIRNRPPRLPRPRPRPCLLPRP	-0.414
RRIRERPPRLPRPRPRPCPTPRP	-0.204
RRIRWRPPRLPRPRPRPVHVPRP	0.109
RRIRFRPPRLPRPRPRPSRDPRP	1.18
RRIRIRPPRLPRPRPRPRATPRP	0.728
RRIRFRPPRLPRPRPRPNLPPRP	-0.454
RRIRQRPPRLPRPRPRPRMMPRP	-0.161
RRIRHRPPRLPRPRPRPFIKPRP	-0.138
RRIRMRPPRLPRPRPRPCLCPRP	-0.0635
RRIRHRPPRLPRPRPRPQSHPRP	-0.167
RRIRLRPPRLPRPRPRPCRNPRP	-0.241

Sequence	shrunken log2 fold change
RRIRFRPPRLPRPRPRPKFGPRP	0.039
RRIRRRPPRLPRPRPRPDKTPRP	0.119
RRIRKRPPRLPRPRPRPVWVPRP	0.15
RRIRARPPRLPRPRPRPLHTPRP	0.0174
RRIRHRPPRLPRPRPRPLLYPRP	-0.528
RRIRPRPPRLPRPRPRPGLDPRP	0.0198
RRIRGRPPRLPRPRPRPRYKPRP	0.247
RRIRQRPPRLPRPRPRPLKCPRP	-0.139
RRIRLRPPRLPRPRPRPMMQPRP	-0.223
RRIRWRPPRLPRPRPRPTTFPRP	-0.09
RRIRWRPPRLPRPRPRPKPFPRP	0.323
RRIRDRPPRLPRPRPRPGQSPRP	0.116
RRIRWRPPRLPRPRPRPISGPRP	-0.12
RRIRWRPPRLPRPRPRPLWTPRP	0.0621
RRIRGRPPRLPRPRPRPDMFPRP	1.92
RRIRKRPPRLPRPRPRPNAMPRP	-0.0822
RRIRQRPPRLPRPRPRPDCEPRP	-0.00144
RRIRRRPPRLPRPRPRPVIWPRP	0.185
RRIRRRPPRLPRPRPRPDCPPRP	0.4
RRIRWRPPRLPRPRPRPVIAPRP	0.037
RRIRERPPRLPRPRPRPQAFPRP	-0.017
RRIRKRPPRLPRPRPRPDIYPRP	0.152
RRIRHRPPRLPRPRPRPLLMPRP	-0.0151
RRIRFRPPRLPRPRPRPSWMPRP	-0.0113
RRIRYRPPRLPRPRPRPVATPRP	-0.281

Sequence	shrunken log2 fold change
RRIRHRPPRLPRPRPRPPWDPRP	0.131
RRIRRRPPRLPRPRPRPFARPRP	0.217
RRIRARPPRLPRPRPRPCIIPRP	-0.076
RRIRWRPPRLPRPRPRPTHHPRP	0.104
RRIRWRPPRLPRPRPRPIEAPRP	0.199
RRIRPRPPRLPRPRPRPYDFPRP	-0.194
RRIRTRPPRLPRPRPRPFSTPRP	-0.0812
RRIRDRPPRLPRPRPRPTTFPRP	0.0301
RRIRPRPPRLPRPRPRPHSGPRP	-0.169
RRIRTRPPRLPRPRPRPQIPPRP	-0.235
RRIRDRPPRLPRPRPRPNQHPRP	-0.283
RRIRRRPPRLPRPRPRPSHAPRP	0.232
RRIRDRPPRLPRPRPRPDIVPRP	0.0868
RRIRHRPPRLPRPRPRPNPVPRP	-0.312
RRIRLRPPRLPRPRPRPHRWPRP	-0.0172
RRIRHRPPRLPRPRPRPKQHPRP	-0.2
RRIRSRPPRLPRPRPRPGTQPRP	0.00256
RRIRARPPRLPRPRPRPARMPRP	0.724
RRIRFRPPRLPRPRPRPIIMPRP	-0.799
RRIRIRPPRLPRPRPRPWVVPRP	-0.236
RRIRDRPPRLPRPRPRPMTYPRP	-0.109
RRIRTRPPRLPRPRPRPVVMPRP	-0.0861
RRIRCRPPRLPRPRPRPSTSPRP	-0.282
RRIRDRPPRLPRPRPRPLFVPRP	-0.168
RRIRFRPPRLPRPRPRPRNRPRP	-0.182
